According to patent US20240189423A1:

Legend:
[1] = target: tumor-associated calcium signal transducer 2 (TROP2) (UniProt P09758); assay: cell-based or functional assay
[2] = target: human epidermal growth factor receptor 2 (HER2) (human) (UniProt P04626); assay: cell-based or functional assay

tumor-associated calcium signal transducer 2 (TROP2), sequence (P09758 27-323 limits assumed): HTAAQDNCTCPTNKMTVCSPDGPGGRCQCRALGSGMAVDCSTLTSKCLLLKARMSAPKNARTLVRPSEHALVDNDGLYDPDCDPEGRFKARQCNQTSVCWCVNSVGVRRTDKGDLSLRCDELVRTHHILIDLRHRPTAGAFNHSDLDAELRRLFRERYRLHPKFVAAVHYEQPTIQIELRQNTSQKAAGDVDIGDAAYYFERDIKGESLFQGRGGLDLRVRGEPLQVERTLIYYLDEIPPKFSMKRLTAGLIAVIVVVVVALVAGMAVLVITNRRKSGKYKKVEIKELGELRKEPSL

| Substance | Dmax (%), TROP2, MCF7 [1] [%] | IC50 of cell viability, modified MTT assay, MDA-MB-175VII cells, 5 days [2] [nM] | IC50 of cell viability, modified MTT assay, SK-BR-3 cells, 5 days [2] [nM] |
| --- | --- | --- | --- |
| CXCL12-Sacituzumab (bispecific antibody) | 51 | – | – |
| CXCL12-Trastuzumab (bispecific antibody) | – | 86.8 | 199 |
